We go through 1 molecule from patent publication US20240254220A1 (CENTRICSBIO, published 2024).

One assay has as its target T1, B7-H4 (Sino Biological) (UniProt Q7Z7D3 25-258, limits assumed).
T1 sequence (looked up): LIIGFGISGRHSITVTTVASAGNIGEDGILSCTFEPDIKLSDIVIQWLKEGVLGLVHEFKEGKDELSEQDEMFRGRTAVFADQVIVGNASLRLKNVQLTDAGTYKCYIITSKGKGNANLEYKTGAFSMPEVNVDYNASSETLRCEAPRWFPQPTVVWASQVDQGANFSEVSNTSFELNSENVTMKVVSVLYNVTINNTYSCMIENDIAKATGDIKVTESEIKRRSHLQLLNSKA
The assay can be described thus: binding ELISA on coated antigen (8 µg/mL), HRP anti-Fc detection, 450 nm (Experimental Example 2.5). On the procedure: (§1) In order to identify that the anti-CD300c monoclonal antibody CL7 specifically binds only to CD300c without binding to other B7 family proteins, binding ELISA was performed. More specifically, each of CD300c antigen, CD300a antigen, or seven B7 family protein antigens (PD-L1 [B7-H1] (Sino Biological), ICOS Ligand[B7-H2] (Sino Biological), CD276[B7-H3] (Sino Biological), B7-H4 (Sino Biological), CD80[B7-1] (Sino Biological), CD86[B7-2] (Sino Biological), CD273[PD-L2] (Sino Biological)) in a coating buffer (0.1 M sodium carbonate, pH 9.0) was coated on an ELISA plate at a concentration of 8 μg/mL per well, and then bound to the plate by incubation at 2° C. to 8° C. overnight. The unbound antigen was removed by washing with PBST three times, and then […] of blocking buffer (5% skim milk in PBST) was added to each well. Subsequently, blocking was performed at room temperature for 1 hour, followed by washing again with PBST. Thereafter, CL7 was diluted in quadruplicate with PBS, incubated with the antigen at room temperature for 1 hour for antigen binding 1 hour later, and washed three times with PBST. Then, a secondary antibody (HRP-conjugated anti-Fc IgG) diluted to 4 μg/mL in blocking buffer was added thereto, followed by incubation at room temperature for 1 hour. Subsequently, the unbound antibody for detection was removed using PBST, and then a TMB solution was added thereto, followed by incubation for 10 minutes for development. Then, 2 N sulfuric acid solution was added to terminate the development reaction, and the absorbance was measured at 450 nm to identify the antibody specifically binding to the CD300c antigen.
A general note: An ELISA detects its analyte on a solid surface through an enzyme-linked reagent.

Assay [1] concerns the target T2, CD276[B7-H3] (Sino Biological) (UniProt Q5ZPR3 29-461, limits assumed).
T2 sequence (looked up): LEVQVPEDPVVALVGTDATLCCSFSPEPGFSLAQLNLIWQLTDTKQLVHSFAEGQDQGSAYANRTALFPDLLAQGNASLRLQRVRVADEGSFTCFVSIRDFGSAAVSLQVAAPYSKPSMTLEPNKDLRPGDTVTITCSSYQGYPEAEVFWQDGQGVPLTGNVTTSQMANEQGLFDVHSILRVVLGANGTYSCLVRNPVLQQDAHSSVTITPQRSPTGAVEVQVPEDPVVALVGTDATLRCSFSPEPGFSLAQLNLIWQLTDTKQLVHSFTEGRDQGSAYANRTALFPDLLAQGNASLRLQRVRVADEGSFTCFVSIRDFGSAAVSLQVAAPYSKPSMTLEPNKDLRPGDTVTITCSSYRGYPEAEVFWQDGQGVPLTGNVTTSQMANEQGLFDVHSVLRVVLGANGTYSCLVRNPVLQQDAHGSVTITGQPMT
The description is as above. On the procedure:
as §1

B1: CL7 (antibody, V domains shown)
VH: EVQLLESGGGLVQPGGSLRLSCAASGFTFSRYAMSWVRQAPGKGLEWVSAISGSGGSTYYADSVKGRFTISRDNSKNTLYLQMNSLRAEDTAVYYCARSSQGIFDIWGQGTLVTVSS
VL: QSVLTQPPSASGTPGQRVTISCSGNNIGTRRVHWYQQLPDTAPKLLIYSKNNRPSGVPDRFSGSKSGTSASLAISGLRSEDEADYYCAAWDDSLSGPVFGGGTKLTVL
notes: detected with anti-human IgG (H+L) and anti-Fc IgG; also called anti-CD300c monoclonal antibody CL7; anti-CD300c monoclonal antibody (CL7)
Regarding B1, the binding result (in the assay with B7-H4 (Sino Biological); in assay [1]) was “no binding (tested: log10 about 0.4 ug/ml (about 2.5 ug/ml))” in each case.
